Reference: patent publication US20200331965A1 (EMORY UNIVERSITY, published 2020)
Values belong to the molecule of their own block, whether it stands above or below them.

What was measured:
[1] = molecular target: zonula occludens 1 (rat alveolar epithelial cells) (rat); test: STORM co-localization, untransduced rat AECs
[2] = molecular target: zonula occludens 1 (rat alveolar epithelial cells) (rat); test: STORM co-localization, rat AECs without YFP-claudin-5
[3] = molecular target: zonula occludens 1 (rat alveolar epithelial cells) (rat); test: STORM co-localization, rat AECs transduced with YFP-claudin-5
[4] = molecular target: T1, zonula occludens 1 (rat alveolar epithelial cells) (rat, UniProt A0A0G2K2P5 1-1765); test: STORM co-localization in rat AECs (FIG. 4C)
T1 construct: Endogenous cytoplasmic protein within primary rat AECs (not a surface protein); also called ZO-1
T1 sequence (A0A0G2K2P5 whole entry): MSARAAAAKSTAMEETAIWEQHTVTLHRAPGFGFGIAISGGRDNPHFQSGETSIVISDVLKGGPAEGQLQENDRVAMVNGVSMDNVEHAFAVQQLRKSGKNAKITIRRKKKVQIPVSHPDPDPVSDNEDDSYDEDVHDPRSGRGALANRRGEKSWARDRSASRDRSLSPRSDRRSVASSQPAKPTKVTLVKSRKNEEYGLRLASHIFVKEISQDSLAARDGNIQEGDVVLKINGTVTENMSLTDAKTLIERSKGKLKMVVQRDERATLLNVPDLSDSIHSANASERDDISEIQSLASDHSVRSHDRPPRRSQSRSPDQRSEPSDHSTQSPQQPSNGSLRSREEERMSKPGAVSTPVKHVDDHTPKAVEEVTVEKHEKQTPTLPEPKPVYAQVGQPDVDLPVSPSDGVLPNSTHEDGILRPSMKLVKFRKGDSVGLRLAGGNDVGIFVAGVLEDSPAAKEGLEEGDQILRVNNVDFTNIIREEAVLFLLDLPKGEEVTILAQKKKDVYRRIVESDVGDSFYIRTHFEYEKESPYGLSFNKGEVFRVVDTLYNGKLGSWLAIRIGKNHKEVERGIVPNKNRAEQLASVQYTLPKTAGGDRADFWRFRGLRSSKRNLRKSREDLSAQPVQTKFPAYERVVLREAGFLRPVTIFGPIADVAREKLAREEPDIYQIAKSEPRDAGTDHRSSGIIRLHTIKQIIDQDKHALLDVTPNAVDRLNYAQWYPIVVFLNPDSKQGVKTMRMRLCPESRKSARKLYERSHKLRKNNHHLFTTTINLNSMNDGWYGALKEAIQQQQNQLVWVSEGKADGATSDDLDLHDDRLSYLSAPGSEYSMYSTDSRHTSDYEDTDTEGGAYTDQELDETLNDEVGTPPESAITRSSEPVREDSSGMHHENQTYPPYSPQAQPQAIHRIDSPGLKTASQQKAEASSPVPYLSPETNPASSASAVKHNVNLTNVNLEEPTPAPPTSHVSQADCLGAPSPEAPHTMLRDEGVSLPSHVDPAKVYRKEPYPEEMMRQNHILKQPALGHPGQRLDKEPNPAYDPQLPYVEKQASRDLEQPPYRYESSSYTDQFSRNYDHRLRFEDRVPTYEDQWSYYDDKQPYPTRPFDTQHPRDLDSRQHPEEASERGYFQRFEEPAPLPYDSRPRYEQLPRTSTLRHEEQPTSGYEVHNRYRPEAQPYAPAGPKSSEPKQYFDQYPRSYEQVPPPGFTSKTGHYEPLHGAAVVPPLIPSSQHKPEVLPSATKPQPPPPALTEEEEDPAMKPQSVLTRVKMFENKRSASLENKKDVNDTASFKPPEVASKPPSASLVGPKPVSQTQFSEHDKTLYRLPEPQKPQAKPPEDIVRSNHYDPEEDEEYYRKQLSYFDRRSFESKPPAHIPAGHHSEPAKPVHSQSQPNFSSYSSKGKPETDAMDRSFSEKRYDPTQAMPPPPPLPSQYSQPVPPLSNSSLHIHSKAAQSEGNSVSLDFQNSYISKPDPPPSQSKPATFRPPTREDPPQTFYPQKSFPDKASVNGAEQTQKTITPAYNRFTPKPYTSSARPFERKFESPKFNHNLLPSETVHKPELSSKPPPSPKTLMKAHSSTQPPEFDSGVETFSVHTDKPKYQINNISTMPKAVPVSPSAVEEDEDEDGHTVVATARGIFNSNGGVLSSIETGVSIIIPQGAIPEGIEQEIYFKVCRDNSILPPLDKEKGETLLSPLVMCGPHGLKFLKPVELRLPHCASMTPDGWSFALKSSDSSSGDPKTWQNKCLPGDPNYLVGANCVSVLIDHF

Sequence of zonula occludens 1 (rat alveolar epithelial cells) (rat) (A0A0G2 entry or part of it limits assumed): as the sequence (A0A0G2K2P5 whole entry) above

co-localization index [1]: 30.5%
co-localization [2]: 31%
co-localization [3]: 16%
Molecule: native claudin-18 (rat alveolar epithelial cells) (from UniProt Q5I0E5 1-261)

binding result [4]: binds
B1: native claudin-5 (rat alveolar epithelial cells) (other, UniProt Q9JKD6 1-218, looked up)
chain: MGSAALEILGLVLCLVGWVGLILACGLPMWQVTAFLDHNIVTAQTTWKGLWMSCVVQSTGHMQCKVYESVLALSAEVQAARALTVGAVLLALVALFVTLTGAQCTTCVAPGPVKARVALTGGALYALCGLLALVPLCWFANIVVREFYDPTVPVSQKYELGAALYIGWAASALLMCGGGLVCCGAWVCTGRPEFSFPVKYSAPRRTTANGDYDKKNYV
notes: whole, on cells; Endogenous protein in primary rat AECs from control-fed or alcohol-fed rats; detected with antibodies (co-immunopurification, STORM, PLA); also called Cldn-5
